Results from patent publication US20190029960A1, “Therapeutic Nanoparticles Having EGFR Ligands and Methods of Making and Using Same” (Pfizer Inc., priority 2016, published 2019).
Where a SMILES comes first, the peptide text is derived from it. Bridges are numbered along the chain shown (N, C = ends). [ ]: non-standard residue; d: D form. The star is where a group is joined. Orn = NCCC[C@H](N)C(=O)O; Pra = C#CC[C@H](N)C(=O)O; Dap = NC[C@H](N)C(=O)O; Acm = CC(=O)NC*

Target: T1, Fc tagged recombinant human EGFR (rhEGFR-Fc) (Homo sapiens, UniProt P00533)
T1 construct: purchased R&D Systems 344-ER-050
Assay type: binding
Settings: for KD: Table 6, TGF fragments; for Result: Table 14, relative affinity compared to KD of parent P2 (FIG. 16)
Experimental: Surface plasmon resonance (SPR) binding studies were carried out on a Biacore T200 instrument (GE Healthcare). Approximately 10,000 RU of anti-Fc antibody (GE Healthcare, Cat #BR100839) was immobilized via amine coupling on each of flow cells 1 and 2 of a CM5 dextran-coated gold sensor chip (GE Healthcare, Cat #BR100530). […] The contact time and resulting amount of rhEGFR-Fc capture was varied based on the nature of the analyte, namely whether it was a peptide or nanoparticle.
Peptide binding assays were carried out in 10 mM PBS buffer supplemented with 0.05% surfactant P20 and 5% DMSO by volume, at 25° C. Peptides were injected over the rhEGFR-Fc surface for 60 s, followed by dissociation (buffer injection) for 60 s and regeneration with a 10 s pulse of 3M MgCl2. A fresh rhEGFR-Fc surface was generated for each concentration of each peptide tested. Peptide binding data was analyzed by fitting to a 1:1 Langmuir kinetic model to obtain the on-rate (ka), off-rate (kd) and/or equilibrium binding constant (KD) of the interaction.

Row | Result | Molecule | KD | further results
1 |  | H2N-DPCTWEVWARECLQ-GG-Par-G-CONH2 [Peptide P2-41] |  | KD/P2 KD (Table 13, point mutations): NS at 100 μM
2 |  | C#CC[C@H](NC(=O)CN)C(=O)NCC(=O)NCC(=O)N[C@@H](Cc1c[nH]c2ccccc12)C(=O)N[C@@H](CO)C(=O)N[C@@H](Cc1c[nH]cn1)C(=O)N[C@@H](Cc1ccccc1)C(=O)N[C@@H](CC(N)=O)C(=O)N[C@@H](CC(=O)O)C(=O)N[C@@H](CS)C(=O)N1CCC[C@H]1C(=O)N[C@@H](CC(=O)O)C(N)=O [TGFf-13] (H-G[Pra]GGWSHFNDCPD-NH2) | No binding | 
3 |  | C#CC[C@H](NC(=O)CN)C(=O)NCC(=O)NCC(=O)N[C@@H](CCC(N)=O)C(=O)N[C@@H](CCC(=O)O)C(=O)N[C@@H](CC(=O)O)C(=O)N[C@@H](CCCCN)C(=O)N1CCC[C@H]1C(=O)N[C@@H](C)C(=O)N[C@@H](CSCNC(C)=O)C(=O)N[C@H](C(=O)N[C@@H](CS)C(=O)N[C@@H](Cc1c[nH]cn1)C(N)=O)C(C)C [TGFf-8, H2N-G-Par-GG-QEDKPAC(Acm)VCH-CONH2] (H-G[Pra]GGQEDKPAC(Acm)VCH-NH2) | No binding | 
4 | No binding | H2N-GDPDTWEVWGRE-Dap-LQ-GG-Par-G-CONH2 (H-GDPDTWEVWGRE[Dap]LQGG[Pra]G-NH2; lactam 4-13) [Peptide P2-66] |  | 
5 | No binding | H2N-GDP-Dap-TWEVWGREELQ-GG-Par-G-CONH2 (H-GDP[Dap]TWEVWGREELQGG[Pra]G-NH2; lactam 4-13) [Peptide P2-63] |  | 
6 | No binding | H2N-GDPKTWEVWGREELQ-GG-Par-G-CONH2 (H-GDPKTWEVWGREELQGG[Pra]G-NH2; lactam 4-13; SMILES C#CC[C@H](NC(=O)CNC(=O)CNC(=O)[C@H](CCC(N)=O)NC(=O)[C@H](CC(C)C)NC(=O)[C@@H]1CCC(=O)NCCCC[C@H](NC(=O)[C@@H]2CCCN2C(=O)[C@H](CC(=O)O)NC(=O)CN)C(=O)N[C@@H]([C@@H](C)O)C(=O)N[C@@H](Cc2c[nH]c3ccccc23)C(=O)N[C@@H](CCC(=O)O)C(=O)N[C@@H](C(C)C)C(=O)N[C@@H](Cc2c[nH]c3ccccc23)C(=O)NCC(=O)N[C@@H](CCCNC(=N)N)C(=O)N[C@@H](CCC(=O)O)C(=O)N1)C(=O)NCC(N)=O) [Peptide P2-60] |  | 
7 |  | C#CC[C@H](NC(=O)CN)C(=O)NCC(=O)NCC(=O)N[C@@H](C)C(=O)N[C@@H](CCCNC(=N)N)C(=O)N[C@@H](CS)C(=O)N[C@@H](CCC(=O)O)C(=O)N[C@@H](Cc1c[nH]cn1)C(=O)N[C@@H](C)C(=O)N[C@@H](CC(=O)O)C(=O)N[C@@H](C)C(=O)N[C@@H](CC(=O)O)C(=O)N[C@@H](CC(C)C)C(N)=O [TGFf-5] (H-G[Pra]GGARCEHADADL-NH2) | No binding | 
8 |  | C#CC[C@H](NC(=O)CN)C(=O)NCC(=O)NCC(=O)N[C@@H](C)C(=O)N[C@@H](CSCNC(C)=O)C(=O)N[C@H](C(=O)N[C@@H](CS)C(=O)N[C@@H](Cc1c[nH]cn1)C(=O)N[C@@H](CO)C(=O)NCC(=O)N[C@@H](Cc1ccc(O)cc1)C(=O)N[C@H](C(=O)NCC(N)=O)C(C)C)C(C)C [TGFf-7] (H-G[Pra]GGAC(Acm)VCHSGYVG-NH2) | No binding | 
9 | No binding | H2N-GDPETWEVWGRE-Orn-LQ-GG-Par-G-CONH2 (H-GDPETWEVWGRE[Orn]LQGG[Pra]G-NH2; lactam 4-13; SMILES C#CC[C@H](NC(=O)CNC(=O)CNC(=O)[C@H](CCC(N)=O)NC(=O)[C@H](CC(C)C)NC(=O)[C@@H]1CCCNC(=O)CC[C@H](NC(=O)[C@@H]2CCCN2C(=O)[C@H](CC(=O)O)NC(=O)CN)C(=O)N[C@@H]([C@@H](C)O)C(=O)N[C@@H](Cc2c[nH]c3ccccc23)C(=O)N[C@@H](CCC(=O)O)C(=O)N[C@@H](C(C)C)C(=O)N[C@@H](Cc2c[nH]c3ccccc23)C(=O)NCC(=O)N[C@@H](CCCNC(=N)N)C(=O)N[C@@H](CCC(=O)O)C(=O)N1)C(=O)NCC(N)=O) [Peptide P2-68] |  | 
10 |  | C#CC[C@H](NC(=O)CN)C(=O)NCC(=O)NCC(=O)N[C@@H](C)C(=O)N[C@@H](CC(=O)O)C(=O)N[C@@H](CC(C)C)C(=O)N[C@@H](CC(C)C)C(=O)N[C@@H](C)C(=O)N[C@H](C(=O)N[C@H](C(=O)N[C@@H](C)C(=O)N[C@@H](C)C(N)=O)C(C)C)C(C)C [TGFf-4] (H-G[Pra]GGADLLAVVAA-NH2) | No binding | 
